From paper PMC2879331 (Clinical cancer research : an official journal of the …, 2008)

Target: the molecule itself
Test: non-reducing SDS-PAGE

B1: matrix metalloprotease 9 (MMP-9) (enzyme)
chain: not shown
  stoichiometry N: 2
